Source: article PMC10987521, “An all-in-one tetrazine reagent for cysteine-selective labeling and bioorthogonal activable prodrug construction” (Nature Communications, 2024)
Read-outs that look alike come from different tables or passages of the source.

Tests used:
[1] = Critical micelle concentration of peptide conjugates (Nile Red); type: physicochemical; conditions: PBS (5% DMSO), Nile Red 1.0 μM, room temperature overnight; intersection of tangents
Description: The second-order rate constant for the labeling reactions between tetrazine 1 and Cys was determined at 25 °C in PB (30% MeCN, 20 mM, pH 8.0) under second-order conditions using a 6000+ (Quawell) UV-Vis spectrophotometer. The concentrations of cysteine and tetrazine were identical. The specific difference in absorption wavelength (300 nm) between 1 and Cys-1 was measured over time. The second-order rate constant k2 was calculated from the slope of a plot of (1/c – 1/c0) versus time.
5. Competitive labeling reaction with other nucleophilic amino acids
For the competitive labeling experiment, 10 equiv. (2 mM) of N-Fmoc-Lys, N-Fmoc-Arg, Ser, Tyr, and 1.3 equiv. […] The resulting solution was maintained at 25 °C and monitored by LC –MS. […]
Each voTz analogue (1.1 equiv.) was added to a 0.25 mL vial containing solvent. […] The chromatogram peak areas of all relevant Cys -containing species were integrated, and the yiel d was determined using the following equation: Yield (%) = Iproduct/(Istarting + Iproduct + Ioxidation + Iside product) × 100, where Istarting, Iproduct, Ioxidation, and Iside product respectively represent the average ion counts of remaining starting material, product, oxidized starting material and any side product, if present 2. […]
DLS analyses and particle zeta potential values were determined using a Nano ZS ZEN 3690 instrument (Malvern […]

Stability in FBS (serum) = type: in vitro ADME; conditions: for remaining at 1 h, 50 μM / remaining at 2 h, 50 μM / remaining at 3 h, 50 μM / RGD-Dox (%): stability in the FBS; for remaining at 1 h, 50 μM / remaining at 2 h, 50 μM / remaining at 3 h, 50 μM: read-out: RGD-Dox (%)
Description: The results are shown as the mean ± SD. Source data are provided as a Source Data file. […]
Supplementary Fig. 48. Stability of RGD-Dox in the 50% FBS. RGD-Dox was diluted to a concentration of 50 μM
using 50% FBS/PBS (10% DMSO). The mixture was homogenized and incubated at 37 °C. The stability of RGD-Dox
was assessed by measuring the decrease in peak area at 520 nm (with the initial peak area at 0 min defined as 100%).
This measurement was monitored by HPLC–MS. Independent measurements were taken three times. The results are
shown as the mean ± SD. Source data are provided as a Source Data file. […]
Source data are provided as a Source Data file.

B16F10 cells [2] = experiment: Comparison of cell uptake between RGD-Dox and Dox using flow cytometry; type: cell-based, Mouse
Description: B16F10 cells were cultured for 48 h. […]
12.1 Calculation of the fluorescence coefficient (F c)
The Fc was the radio calculated
12.2 Uptake calculation of the B16F10 cells […]
deviation were analyzed using Origin Pro 2015.
B16F10 cells, characterized by α vβ3
Following the incubation period, the
Subsequently, the cells were trypsinized and underwent three PBS rinses. […]

B16F10 cells [3] = experiment: Cellular uptake of RGD-Dox over various time intervals using flow cytometry; type: cell-based, Mouse

## COc1cccc2c1C(=O)c1c(O)c3c(c(O)c1C2=O)C[C@@](O)(C(=O)CO)C[C@@H]3O[C@H]1C[C@H](NC(=O)OCc2nnc(CCSC[C@@H]3NC(=O)[C@@H](Cc4ccc(O)cc4)NC(=O)[C@H](CC(=O)O)NC(=O)CNC(=O)[C@H](CCCNC(=N)N)NC3=O)nn2)[C@H](O)[C@H](C)O1 [RGD-Dox]
[1]
  critical micellar concentration (CMC): 3.31 µM
Stability in FBS (serum); bovine, serum, 5 h, 37 °C, 50 μM in 50% FBS/PBS (10% DMSO), HPLC–MS peak area 520 nm, n = 3, read-out: intact in serum
  remaining at 5 h, 50 μM: 80%
Stability in FBS (serum); bovine, serum, Data 1
  remaining at 1 h, 50 μM: 97%
  remaining at 2 h, 50 μM: 88%
  remaining at 3 h, 50 μM: 86%
Stability in FBS (serum); bovine, serum, Data 3
  remaining at 1 h, 50 μM: 93%
  remaining at 2 h, 50 μM: 89%
  remaining at 3 h, 50 μM: 84%
Stability in FBS (serum); bovine, serum, Data 2
  remaining at 3 h, 50 μM: 82%
Stability in FBS (serum); 0 h, Data 2
  RGD-Dox (%): 100%
Stability in FBS (serum); 0 h, Data 3
  RGD-Dox (%): 100%
Stability in FBS (serum); 5 h, Data 1
  RGD-Dox (%): 80%
Stability in FBS (serum); 5 h, Data 2
  RGD-Dox (%): 77%
Stability in FBS (serum); 5 h, Data 3
  RGD-Dox (%): 81%
B16F10 cells [2]; normalized to Dox = 1, Data 1
  Normalized uptake: 22.44
B16F10 cells [2]; normalized to Dox = 1, Data 2
  Normalized uptake: 22.03
B16F10 cells [2]; normalized to Dox = 1, Data 3
  Normalized uptake: 17.85
B16F10 cells [3]; 0.5 h, Data 2
  cellular uptake of RGD-Dox (flow cytometry): 4811
B16F10 cells [3]; 1 h, Data 1
  cellular uptake of RGD-Dox (flow cytometry): 7075
B16F10 cells [3]; 1 h, Data 2
  cellular uptake of RGD-Dox (flow cytometry): 6214
B16F10 cells [3]; 2 h, Data 2
  cellular uptake of RGD-Dox (flow cytometry): 11247
B16F10 cells [3]; 2 h, Data 3
  cellular uptake of RGD-Dox (flow cytometry): 9887
B16F10 cells [3]; 3 h, Data 1
  cellular uptake of RGD-Dox (flow cytometry): 12006
B16F10 cells [3]; 3 h, Data 2
  cellular uptake of RGD-Dox (flow cytometry): 12578
B16F10 cells [3]; 4 h, Data 2
  cellular uptake of RGD-Dox (flow cytometry): 13144
